The text below walks through data of article PMC12373786, “Targeted protein degradation in Escherichia coli using CLIPPERs” (EMBO Reports, 2025).

Square brackets hold non-standard residues; d marks the D form. Primed or numbered codes have the meaning given here. Ends that are not written are not given here. PEG3′ = three-unit polyethylene glycol linker

Assay [1] concerns the target His-SUMO-XB-GGS-SBP (E. coli). The assay is described as follows: BLI; His-SUMO-tagged peptide loaded on Octet NTA biosensors (150 nM Anchor-Linker or 100 nM GroTAC1), blocked with His-SUMO; ClpX 1 uM to 31.25 nM in solution; 30 °C; 25 mM HEPES pH 8.0, 200 mM KCl, 10 mM MgCl2, 0.05% Tween-20, 2.5 mM ATP; 1:1 model.
For assay [2], the target named is His-SUMO-XB-GGS (E. coli). The description is as above.
The target in assay [3] is His-SUMO-XB-GGS-SBP (E. coli). Put plainly: BLI; His-SUMO-tagged peptide loaded on Octet NTA biosensors (150 nM Anchor-Linker or 100 nM GroTAC1), blocked with 86 nM His-SUMO; ClpX as analyte, 1 uM to 31.25 nM; 30 C; 25 mM HEPES pH 8.0, 200 mM KCl, 10 mM MgCl2, 0.05% Tween-20, 2.5 mM ATP; 1:1 fit.
Assay [4] concerns the target His-SUMO-XB-GGS (E. coli). The description is as above.
Assay [5] has as its target His-SUMO-XB-GGS-SBP (E. coli). The assay is described as follows: BLI; His-SUMO-tagged peptide loaded on Octet NTA biosensors (200 nM Linker-Bait or 400 nM GroTAC1), blocked with 257 nM His-SUMO; GroEL as analyte, 2.5 uM to 78.1 nM; 30 C; 25 mM HEPES pH 8.0, 300 mM KCl, 10 mM MgCl2, 0.05% Tween-20, 12.5 mM ATP; 1:1 fit.
Assay [6] deals with His-SUMO-GGS-SBP. Described as above.
Assay [7] addresses His-SUMO-XB-GGS-SBP (E. coli). The assay is described as follows: BLI; His-SUMO-tagged peptide loaded on Octet NTA biosensors (200 nM Linker-Bait or 400 nM GroTAC1), blocked with His-SUMO; GroEL 2.5 uM to 78.1 nM in solution; 30 °C; 25 mM HEPES pH 8.0, 300 mM KCl, 10 mM MgCl2, 0.05% Tween-20, 12.5 mM ATP; 1:1 model.
For assay [8], the target named is His-SUMO-GGS-SBP. The assay is described as above.
The target in a further assay is T1, His-ZBD (E. coli, UniProt P0A6H1 1-52).
T1 construct: also called 6xHis-ZBD; source: E. coli BL21 DE3, purified (HisTrap, Superdex200); not shown: His6, N-terminal, kept
T1 sequence (looked up): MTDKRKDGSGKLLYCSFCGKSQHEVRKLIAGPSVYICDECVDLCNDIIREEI
Put plainly: BLI; 1.37 uM His-ZBD loaded on Octet NTA biosensors, blocked with 600 nM cAbGFP; untagged synthetic peptide as analyte, 1 uM to 31.25 nM; 30 C; 25 mM HEPES pH 8.0, 200 mM KCl, 10 mM MgCl2, 2.5 mM ATP, 0.05% Tween 20; 1:1 fit. The note with it: both partners purified.

Consider “ClpX (from UniProt P0A6H1 1-424) (enzyme)”, for which the Kd worked out at 0.07 µM in [1], 0.065 µM in [2], 0.0704 µM in assay [3] and 0.0648 µM in assay [4]. Moreover, the koff in assay [3] worked out at 0.00769 s⁻¹; in assay [4] it was 0.00495 s⁻¹. Also, the figures for the kon in assay [3] and in assay [4] were 109000 M⁻¹ s⁻¹ and 76500 M⁻¹ s⁻¹, respectively.
Take “GroEL (from UniProt P0A6F5 1-548) (natural protein)”: the koff was found to be 0.00409 s⁻¹ in assay [5] and 0.00919 s⁻¹ in the assay with His-SUMO-GGS-SBP [6]. Besides, the kon in assay [5] was determined as 26600 M⁻¹ s⁻¹; with His-SUMO-GGS-SBP [6] it was 98200 M⁻¹ s⁻¹. Besides, the Kd turned out to be 0.0936 µM in the assay with His-SUMO-GGS-SBP [6], 0.154 µM in assay [7] and 0.094 µM with His-SUMO-GGS-SBP [8].

B1: GroTAC2 (synthetic) (designed binder)
peptide: CYRGGRPALRVVKGGSGGSGGSWMTTPWGFHLP
notes: flexible linker; also called untagged, synthetic GroTAC2; source: synthetic peptide (GeneScript)
In the assay with His-ZBD, B1 had a Kd of 0.0526 µM, a koff of 0.00165 s⁻¹ and a kon of 31400 M⁻¹ s⁻¹.

B2: GroTAC3 (synthetic) (designed binder)
peptide: CYRGGRPALRVVK[PEG3′]SWMTTPWGFHLP
notes: residues 17-28 in the model PDB 8S32; the (PEG)3 linker is no amino acid stretch; also called XB-PEG3-SBP; source: synthetic peptide (KareBay Biochem)
Take B2: in the assay with His-ZBD, binding was characterised by a dissociation constant (Kd) of 0.0824 µM, the koff amounted to 0.000915 s⁻¹ and the kon was found to be 11100 M⁻¹ s⁻¹.
